The Immune Epitope Database (IEDB)
pIC50: −log10 of the molar value. Blank lines part the entries; values can stand above or below the sequence they belong to.

What was measured:
Assay in all cases: IEDB peptide-MHC binding, cellular MHC/competitive/radioactivity; ≥ and ≤ were set here for values at or beyond the usual limits of such assays
HLA-A*02:01 = target: HLA-A*02:01
HLA-A*02:02 = target: HLA-A*02:02
HLA-A*02:05 = target: HLA-A*02:05
[1] = source organism: Hepatitis B virus subtype adw2
[2] = source organism: Human immunodeficiency virus 1
[3] = source organism: Human immunodeficiency virus type 1 BH10

Sequence: STLPETTVVRR
pIC50 (HLA-A*02:01; [1]): 5.88 | pIC50 (HLA-A*02:02; [1]): 5.00 | pIC50 (HLA-A*02:05; [1]): 5.00

Sequence: YLHTLWKAGI
pIC50 (HLA-A*02:02; [1]): 7.28 | pIC50 (HLA-A*02:05; [1]): 7.24

Sequence: IVGAETFYV
pIC50 (HLA-A*02:01; source organism: HIV-1 M:B_MN): 8.46 | pIC50 (HLA-A*02:02; source organism: HIV-1 M:B_MN): 7.21 | pIC50 (HLA-A*02:05; source organism: HIV-1 M:B_MN): 8.19

Sequence: DPKVKQWPL
pIC50 (HLA-A*02:02; [2]): 5.00 | pIC50 (HLA-A*02:05; [2]): 5.00

pIC50 (HLA-A*02:01; source organism: Homo sapiens): 5.00 | pIC50 (HLA-A*02:02; source organism: Homo sapiens): 5.00 | pIC50 (HLA-A*02:05; source organism: Homo sapiens): 5.00
Sequence: EADPTGHSY

pIC50 (HLA-A*02:02; source organism: Homo sapiens): 7.06 | pIC50 (HLA-A*02:05; source organism: Homo sapiens): 7.72
Sequence: LLGRNSFEV

Sequence: LLPIFFCLWV
pIC50 (HLA-A*02:05; [1]): 5.00

Sequence: WLSLLVPFV
pIC50 (HLA-A*02:02; [1]): 7.47 | pIC50 (HLA-A*02:05; [1]): 8.40

Sequence: ILKEPVHGV
pIC50 (HLA-A*02:02; [3]): 6.82 | pIC50 (HLA-A*02:05; [3]): 8.03
